{
  "source": "paper PMC9848473",
  "about": "“The structure of DarB in complex with Rel^NTD reveals nonribosomal activation of Rel stringent factors” (Science Advances, 2023)",
  "target": "full-length Bacillus subtilis Rel (RelBs) (Bacillus subtilis)",
  "assay": "cell-based or functional assay",
  "data": [
    {"binder": "Bacillus subtilis DarB (natural protein, UniProt O31698 1-147, looked up) MISLQSDQLLEATVGQFMIEADKVAHVQVGNNLEHALLVLTKTGYTAIPVLDPSYRLHGLIGTNMIMNSIFGLERIEFEKLDQITVEEVMLTDIPRLHINDPIMKGFGMVINNGFVCVENDEQVFEGIFTRRVVLKELNKHIRSLNK", "values": [
      {"measurement": "rate of ^3H-ppGpp hydrolysis by RelBs saturated with DarB", "value": 5.5, "unit": "fold"}
    ]}
  ]
}
